Data from article PMC8230527, “Structural and Biochemical Characterization of a Dye-Decolorizing Peroxidase from Dictyostelium discoideum” (International Journal of Molecular Sciences, 2021).

Experiments:
[1] = biological target: Dictyostelium discoideum dye-decolorizing peroxidase DyPA (Dictyostelium discoideum); test: AUC; sedimentation velocity, 50,000 rpm, 20 °C, 50 mM Tris-HCl pH 8.0, 150 mM NaCl; 20 µM apo-DyPA with a heme saturation of only 7%
[2] = biological target: Dictyostelium discoideum dye-decolorizing peroxidase DyPA (Dictyostelium discoideum); test: AUC; sedimentation velocity, 50,000 rpm, 20 °C, 50 mM Tris-HCl pH 8.0, 150 mM NaCl; heme-reconstituted DyPA at 2.1, 6.3, 18.9 and 33.6 µM (monomer concentrations); dimer, no monomer-dimer equilibrium seen in this range

stoichiometry N [1]: 2 | percent of the protein sedimenting as the dimer species [2]: 90% | stoichiometry N [2]: 2
Substance: Dictyostelium discoideum dye-decolorizing peroxidase DyPA (enzyme)
